# Measured values published in article PMC10786891, “Massively parallel profiling of RNA-targeting CRISPR-Cas13d”.
# T1: EsCas13d, nuclease-dead (Eubacterium siraeum, UniProt B0MS50, R295A;H300A;R849A;H854A)
# T1 sequence: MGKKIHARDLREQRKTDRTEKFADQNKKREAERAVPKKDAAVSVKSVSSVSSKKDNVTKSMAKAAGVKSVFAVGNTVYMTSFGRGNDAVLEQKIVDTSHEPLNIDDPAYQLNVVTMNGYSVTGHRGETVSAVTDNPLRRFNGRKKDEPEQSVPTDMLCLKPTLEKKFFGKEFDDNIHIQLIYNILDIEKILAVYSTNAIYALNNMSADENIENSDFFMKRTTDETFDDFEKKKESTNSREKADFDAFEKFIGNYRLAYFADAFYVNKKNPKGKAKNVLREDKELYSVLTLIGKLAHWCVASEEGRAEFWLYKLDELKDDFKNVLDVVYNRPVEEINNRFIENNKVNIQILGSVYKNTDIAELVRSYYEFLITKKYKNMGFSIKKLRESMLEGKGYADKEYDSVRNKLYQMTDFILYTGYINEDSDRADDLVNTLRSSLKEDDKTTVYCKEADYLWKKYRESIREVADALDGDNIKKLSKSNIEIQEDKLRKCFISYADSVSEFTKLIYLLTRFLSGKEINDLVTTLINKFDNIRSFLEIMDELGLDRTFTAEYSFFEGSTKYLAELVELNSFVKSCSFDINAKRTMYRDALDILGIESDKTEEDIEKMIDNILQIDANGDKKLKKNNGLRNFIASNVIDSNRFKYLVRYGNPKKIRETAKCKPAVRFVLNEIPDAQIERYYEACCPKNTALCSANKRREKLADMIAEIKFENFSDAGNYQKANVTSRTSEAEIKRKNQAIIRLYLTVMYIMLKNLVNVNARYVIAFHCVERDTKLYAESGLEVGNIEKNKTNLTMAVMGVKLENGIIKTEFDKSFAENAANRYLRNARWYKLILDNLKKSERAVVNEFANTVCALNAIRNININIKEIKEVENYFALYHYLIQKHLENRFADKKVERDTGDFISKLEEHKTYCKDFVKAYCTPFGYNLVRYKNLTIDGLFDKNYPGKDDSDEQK
# B1: target 1 insC 3' of 8,insU 3' of 7 (mixed)
# RNA 1: CACCCGUGCAAAAAUGCAGGGGUCUAAAACUGAGCGGAUAACCUCUCUAUGG
# RNA 2: GGGAAUGGAUCCACAUCUACGAAUUCGUACCAUAGAGAGGUUAUCCUCGCUCACCGAGAUCGGAAGAGCACACGU
# B2: target 1 insG 3' of 21,insA 3' of 2 (mixed)
# RNA 1: CACCCGUGCAAAAAUGCAGGGGUCUAAAACUGAGCGGAUAACCUCUCUAUGG
# RNA 2: GGGAAUGGAUCCACAUCUACGAAUUCGUACCGAUAGAGAGGUUAUCCGCUCAACCGAGAUCGGAAGAGCACACGU
# B3: target 1 U3A,C6U (mixed)
# RNA 1: CACCCGUGCAAAAAUGCAGGGGUCUAAAACUGAGCGGAUAACCUCUCUAUGG
# RNA 2: GGGAAUGGAUCCACAUCUACGAAUUCGUACCAUAGAGAGGUUAUCUGCACACCGAGAUCGGAAGAGCACACGU
# B4: target 1 insG 3' of 21,insC 3' of 1 (mixed)
# RNA 1: CACCCGUGCAAAAAUGCAGGGGUCUAAAACUGAGCGGAUAACCUCUCUAUGG
# RNA 2: GGGAAUGGAUCCACAUCUACGAAUUCGUACCGAUAGAGAGGUUAUCCGCUCACCCGAGAUCGGAAGAGCACACGU
# B5: target 3 insU 3' of 22,insC 3' of 4 (mixed)
# RNA 1: CACCCGUGCAAAAUUGCAGGGGUCUAAAACGACCUGAAUAUUUCAGAUCAAA
# RNA 2: GGGAAUGGAUCCACAUCUACGAAUUCGUUUUUUGAUCUGAAAUAUUCAGCGUCUGCAGAUCGGAAGAGCACACGU
# B6: target 3 insU 3' of 22,insA 3' of 22 (mixed)
# RNA 1: CACCCGUGCAAAAUUGCAGGGGUCUAAAACGACCUGAAUAUUUCAGAUCAAA
# RNA 2: GGGAAUGGAUCCACAUCUACGAAUUCGUUUUAUUGAUCUGAAAUAUUCAGGUCUGCAGAUCGGAAGAGCACACGU
# B7: target 3 insG 3' of 8,insC 3' of 4 (mixed)
# RNA 1: CACCCGUGCAAAAUUGCAGGGGUCUAAAACGACCUGAAUAUUUCAGAUCAAA
# RNA 2: GGGAAUGGAUCCACAUCUACGAAUUCGUUUUUGAUCUGAAAUAUGUCAGCGUCUGCAGAUCGGAAGAGCACACGU
# B8: target 3 G4A,U22G (mixed)
# RNA 1: CACCCGUGCAAAAUUGCAGGGGUCUAAAACGACCUGAAUAUUUCAGAUCAAA
# RNA 2: GGGAAUGGAUCCACAUCUACGAAUUCGUUGUUGAUCUGAAAUAUUCAAGUCUGCAGAUCGGAAGAGCACACGU
# B9: target 3 insG 3' of 5,insU 3' of 4 (mixed)
# RNA 1: CACCCGUGCAAAAUUGCAGGGGUCUAAAACGACCUGAAUAUUUCAGAUCAAA
# RNA 2: GGGAAUGGAUCCACAUCUACGAAUUCGUUUUUGAUCUGAAAUAUUCAGGUGUCUGCAGAUCGGAAGAGCACACGU
# B10: target 3 U2G,A5C (mixed)
# RNA 1: CACCCGUGCAAAAUUGCAGGGGUCUAAAACGACCUGAAUAUUUCAGAUCAAA
# RNA 2: GGGAAUGGAUCCACAUCUACGAAUUCGUUUUUGAUCUGAAAUAUUCCGGGCUGCAGAUCGGAAGAGCACACGU
# B11: target 3 insA 3' of 8 (mixed)
# RNA 1: CACCCGUGCAAAAUUGCAGGGGUCUAAAACGACCUGAAUAUUUCAGAUCAAA
# RNA 2: GGGAAUGGAUCCACAUCUACGAAUUCGUUUUUGAUCUGAAAUAUAUCAGGUCUGCAGAUCGGAAGAGCACACGU
# B12: target 3 insU 3' of 11 (mixed)
# RNA 1: CACCCGUGCAAAAUUGCAGGGGUCUAAAACGACCUGAAUAUUUCAGAUCAAA
# RNA 2: GGGAAUGGAUCCACAUCUACGAAUUCGUUUUUGAUCUGAAAUUAUUCAGGUCUGCAGAUCGGAAGAGCACACGU
# B13: target 3 insA 3' of 7,insA 3' of 3 (mixed)
# RNA 1: CACCCGUGCAAAAUUGCAGGGGUCUAAAACGACCUGAAUAUUUCAGAUCAAA
# RNA 2: GGGAAUGGAUCCACAUCUACGAAUUCGUUUUUGAUCUGAAAUAUUACAGGAUCUGCAGAUCGGAAGAGCACACGU
# B14: target 3 insG 3' of 8,insU 3' of 5 (mixed)
# RNA 1: CACCCGUGCAAAAUUGCAGGGGUCUAAAACGACCUGAAUAUUUCAGAUCAAA
# RNA 2: GGGAAUGGAUCCACAUCUACGAAUUCGUUUUUGAUCUGAAAUAUGUCAUGGUCUGCAGAUCGGAAGAGCACACGU
# B15: target 3 insG 3' of 5,insC 3' of 3 (mixed)
# RNA 1: CACCCGUGCAAAAUUGCAGGGGUCUAAAACGACCUGAAUAUUUCAGAUCAAA
# RNA 2: GGGAAUGGAUCCACAUCUACGAAUUCGUUUUUGAUCUGAAAUAUUCAGGGCUCUGCAGAUCGGAAGAGCACACGU
# B16: target 3 insC 3' of 3,insA 3' of 2 (mixed)
# RNA 1: CACCCGUGCAAAAUUGCAGGGGUCUAAAACGACCUGAAUAUUUCAGAUCAAA
# RNA 2: GGGAAUGGAUCCACAUCUACGAAUUCGUUUUUGAUCUGAAAUAUUCAGGCUACUGCAGAUCGGAAGAGCACACGU
# B17: target 3 A13G,A18G (mixed)
# RNA 1: CACCCGUGCAAAAUUGCAGGGGUCUAAAACGACCUGAAUAUUUCAGAUCAAA
# RNA 2: GGGAAUGGAUCCACAUCUACGAAUUCGUUUUUGGUCUGGAAUAUUCAGGUCUGCAGAUCGGAAGAGCACACGU
# B18: target 3 U2A,U8A (mixed)
# RNA 1: CACCCGUGCAAAAUUGCAGGGGUCUAAAACGACCUGAAUAUUUCAGAUCAAA
# RNA 2: GGGAAUGGAUCCACAUCUACGAAUUCGUUUUUGAUCUGAAAUAAUCAGGACUGCAGAUCGGAAGAGCACACGU
# B19: target 3 insA 3' of 6,insG 3' of 6 (mixed)
# RNA 1: CACCCGUGCAAAAUUGCAGGGGUCUAAAACGACCUGAAUAUUUCAGAUCAAA
# RNA 2: GGGAAUGGAUCCACAUCUACGAAUUCGUUUUUGAUCUGAAAUAUUCAGAGGUCUGCAGAUCGGAAGAGCACACGU
# B20: target 3 insG 3' of 7,insC 3' of 3 (mixed)
# RNA 1: CACCCGUGCAAAAUUGCAGGGGUCUAAAACGACCUGAAUAUUUCAGAUCAAA
# RNA 2: GGGAAUGGAUCCACAUCUACGAAUUCGUUUUUGAUCUGAAAUAUUGCAGGCUCUGCAGAUCGGAAGAGCACACGU
# B21: target 3 complement block 5-9 (mixed)
# RNA 1: CACCCGUGCAAAAUUGCAGGGGUCUAAAACGACCUGAAUAUUUCAGAUCAAA
# RNA 2: GGGAAUGGAUCCACAUCUACGAAUUCGUUUUUGAUCUGAAAUUAAGUGGUCUGCAGAUCGGAAGAGCACACGU
# B22: target 3 G4U,U8C (mixed)
# RNA 1: CACCCGUGCAAAAUUGCAGGGGUCUAAAACGACCUGAAUAUUUCAGAUCAAA
# RNA 2: GGGAAUGGAUCCACAUCUACGAAUUCGUUUUUGAUCUGAAAUACUCAUGUCUGCAGAUCGGAAGAGCACACGU
# B23: target 3 U2A,U21A (mixed)
# RNA 1: CACCCGUGCAAAAUUGCAGGGGUCUAAAACGACCUGAAUAUUUCAGAUCAAA
# RNA 2: GGGAAUGGAUCCACAUCUACGAAUUCGUUUAUGAUCUGAAAUAUUCAGGACUGCAGAUCGGAAGAGCACACGU
# B24: target 3 A11C,G14U (mixed)
# RNA 1: CACCCGUGCAAAAUUGCAGGGGUCUAAAACGACCUGAAUAUUUCAGAUCAAA
# RNA 2: GGGAAUGGAUCCACAUCUACGAAUUCGUUUUUGAUCUUAACUAUUCAGGUCUGCAGAUCGGAAGAGCACACGU
# B25: target 3 C1G,U21A (mixed)
# RNA 1: CACCCGUGCAAAAUUGCAGGGGUCUAAAACGACCUGAAUAUUUCAGAUCAAA
# RNA 2: GGGAAUGGAUCCACAUCUACGAAUUCGUUUAUGAUCUGAAAUAUUCAGGUGUGCAGAUCGGAAGAGCACACGU
# B26: target 3 insG 3' of 22,insG 3' of 5 (mixed)
# RNA 1: CACCCGUGCAAAAUUGCAGGGGUCUAAAACGACCUGAAUAUUUCAGAUCAAA
# RNA 2: GGGAAUGGAUCCACAUCUACGAAUUCGUUUGUUGAUCUGAAAUAUUCAGGGUCUGCAGAUCGGAAGAGCACACGU
# B27: target 3 G3U,U7G (mixed)
# RNA 1: CACCCGUGCAAAAUUGCAGGGGUCUAAAACGACCUGAAUAUUUCAGAUCAAA
# RNA 2: GGGAAUGGAUCCACAUCUACGAAUUCGUUUUUGAUCUGAAAUAUGCAGUUCUGCAGAUCGGAAGAGCACACGU
# B28: target 3 G3U,U22G (mixed)
# RNA 1: CACCCGUGCAAAAUUGCAGGGGUCUAAAACGACCUGAAUAUUUCAGAUCAAA
# RNA 2: GGGAAUGGAUCCACAUCUACGAAUUCGUUGUUGAUCUGAAAUAUUCAGUUCUGCAGAUCGGAAGAGCACACGU
# Target: T1, EsCas13d, nuclease-dead
# Experiment: crRNA (strand 1, pre-loaded); Mg2+; 40 mM Tris-HCl pH 7.5, 150 mM NaCl, 6 mM MgCl2, 1 mM DTT, 0.1% Tween-20, 0.2 mg/ml BSA; 25 C; 10 min per concentration, then washed
# Conditions: tags: His6-TwinStrep-SUMO cleaved; N-terminal SNAP kept (SNAP-Surface 488); label: 3' end held by stalled T7 RNA polymerase
row,Binder,Kd
1,B1,13.6 ± 1.1 nM
2,B2,54 ± 13 nM
3,B3,5.27 ± 0.27 nM
4,B4,69 ± 12 nM
5,B5,19.5 ± 4.5 nM
6,B6,13.4 ± 1.35 nM
7,B7,38.5 ± 8 nM
8,B8,56.5 ± 9 nM
9,B9,20.4 ± 1.8 nM
10,B10,120 ± 32.5 nM
11,B11,50.5 ± 10 nM
12,B12,81 ± 31 nM
13,B13,37 ± 4.5 nM
14,B14,31.7 ± 2.8 nM
15,B15,76 ± 12.5 nM
16,B16,18.6 ± 2.2 nM
17,B17,~100 nM
18,B18,39 ± 6 nM
19,B19,41 ± 4.5 nM
20,B20,46 ± 5 nM
21,B21,90 ± 9.5 nM
22,B22,39 ± 5 nM
23,B23,39.5 ± 6 nM
24,B24,56.5 ± 27 nM
25,B25,44.5 ± 10.5 nM
26,B26,41.5 ± 18 nM
27,B27,33.1 ± 4.2 nM
28,B28,94 ± 21.5 nM
